Where “and” joins values, the source holds several entries; their conditions need not be identical. Equal entries are not always repeated.
B1: Paenibacillus sp. JJ-1b PraI (para-hydroxybenzoate-3-hydroxylase, PHBH), BAH79107, tagless, praI_EC gene SEQ ID NO: 3 (Paenibacillus sp.) (protein)
chain: RTQVGIIGAGPAGLLLSHLLYLQGIESIIIENRTREEIEGTIRAGVLEQGTVDLMNQMGVGARMMKEGHFHEGFELRFNGRGHRINVHELTGGKYVTVYAQHEVIKDLVAARLQTGGQIHFNVGDVSLHDVDTSSPKIRFRPNKDGELQEIECDFIAGCDGFRGPSRPAIPQSVRKEYQKVYPFSWLGILVEAPPSAHELIYANHERGFALVSTRSPQIQRLYLQVDAQDHIDNWSDDRIWSELHARLETRDGFKLLEGPIFQKGIVSMRSFVCDPMQHGRLFLAGDAAHIVPPTGAKGLNLAAADVQVLARGLEAYYKAGKMEILNRCTEICLRRIWKAERFSWFMTTMLHRDQGHTPFERGIQLAELDYVTSSRAASTSLAENYIGLPMEF
B2: Pseudomonas putida KT2440 PobA (para-hydroxybenzoate-3-hydroxylase, PHBH), native, PP_3537, tagless, pobA_EC gene SEQ ID NO: 1 (Pseudomonas putida KT2440) (protein)
chain: MKTQVAIIGAGPSGLLLGQLLHKAGIDNIIVERQTAEYVLGRIRAGVLEQGTVDLLREAGVAERMDREGLVHEGVELLVGGRRQRLDLKALTGGKTVMVYGQTEVTRDLMQAREASGAPIIYSAANVQPHELKGEKPYLTFEKDGRVQRIDCDYIAGCDGFHGISRQSIPEGVLKQYERVYPFGWLGLLSDTPPVNHELIYAHHERGFALCSQRSQTRSRYYLQVPLQDRVEEWSDERFWDELKARLPAEVAADLVTGPALEKSIAPLRSLVVEPMQYGHLFLVGDAAHIVPPTGAKGLNLAASDVNYLYRILVKVYHEGRVDLLAQYSPLALRRVWKGERFSWFMTQLLHDFGSHKDAWDQKMQEADREYFLTSPAGLVNIAENYVGLPFEEVA

What was measured:
Assay in all cases: purified protein, by the assay type
[1] = substrate: NC(=O)C1=CN([C@@H]2O[C@H](COP(=O)(O)OP(=O)(O)OC[C@H]3O[C@@H](n4cnc5c(N)ncnc54)[C@H](O)[C@@H]3O)[C@@H](O)[C@H]2O)C=CC1; settings: pH 8.0; 25.0 °C
[2] = substrate: O=C(O)c1ccc(O)cc1
[3] = substrate: NC(=O)C1=CN([C@@H]2O[C@H](COP(=O)(O)OP(=O)(O)OC[C@H]3O[C@@H](n4cnc5c(N)ncnc54)[C@H](OP(=O)(O)O)[C@@H]3O)[C@@H](O)[C@H]2O)C=CC1

| Protein | Km [1] | Km ([2]; pH 8.0, 25.0 °C) | Km ([3]; pH 8.0, 25.0 °C) | Km ([2]; other: NADPH as reducing equivalent, NADPH detection (340 nm), air-saturated, 300 μM NAD(P)H, pH 8, 25° C.) | Km ([2]; other: NADPH as reducing equivalent, O2 detection (oxygraph), air-saturated, 300 μM NAD(P)H, pH 8, 25° C.) | Km ([3]; other: NADPH varied, NADPH detection (340 nm), air-saturated, 200 μM 4-hydroxybenzoate, pH 8, 25° C.) | Km ([3]; other: NADPH varied, O2 detection (oxygraph), air-saturated, 200 μM 4-hydroxybenzoate, pH 8, 25° C.) |
| --- | --- | --- | --- | --- | --- | --- | --- |
| B1 | 49 ± 3 µM and 46 ± 4 µM | 16 ± 1 µM and 19 ± 2 µM and 18 ± 1 µM | 27 ± 1 µM and 33 ± 2 µM | – | – | – | – |
| B2 | – | – | – | 18 ± 2 µM | 21 ± 1 µM | 43 ± 3 µM | 66 ± 6 µM |

From patent US12606852B2, “Conversion of lignin-derived monomers to muconate by engineered pseudomonas” (Alliance for Sustainable Energy, LLC, priority 2021, dated 2026)
